Reference: patent US20170259217A1 (GOVERNORS OF THE UNIVERSITY OF ALBERTA, published 2017)
Non-standard residues stand in square brackets, D forms with d. amino hexenoic acid = amino hexenoic acid, a vinyl (alkene)-bearing residue; Gly(octyl) = CCCCCCCC[C@H](N)C(=O)O; NMeL = CN[C@@H](CC(C)C)C(=O)O

Biological target: T1, OmpG, bacterial porin (Escherichia coli K12) (Escherichia coli K12, UniProt P76045 22-301, limits assumed)
T1 sequence (looked up): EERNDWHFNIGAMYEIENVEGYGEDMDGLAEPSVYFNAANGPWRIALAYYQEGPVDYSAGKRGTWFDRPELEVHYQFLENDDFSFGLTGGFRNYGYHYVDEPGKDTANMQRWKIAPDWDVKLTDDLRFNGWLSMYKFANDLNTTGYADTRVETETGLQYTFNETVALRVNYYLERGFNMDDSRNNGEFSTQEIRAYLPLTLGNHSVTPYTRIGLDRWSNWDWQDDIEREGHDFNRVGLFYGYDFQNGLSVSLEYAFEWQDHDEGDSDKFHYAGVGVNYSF
Experiment: circular dichroism of peptide-stabilized protein

- binding result: binds
B1: vinyl (alkene mid-) functionalized β-sheet peptide, structure (8): acetyl-(octyl)Gly-Ser-Leu-Ser-amino hexenoic acid-Leu-Asp-(octyl)Gly-Asp-Gly-Leu-NH2 (peptide)
peptide: Ac-[Gly(octyl)]SLS[amino hexenoic acid][NMeL]D[Gly(octyl)]DGL-NH2
notes: Synthetic 11-residue peptide; also called Vinyl-BP1
